{"source": "patent US11760795B2", "about": "“Monoclonal antibodies to growth and differentiation factor 15 (GDF-15), and uses thereof for treating cancer cachexia and cancer” (JULIUS-MAXIMILIANS-UNIVERSITÄT WÜRZBURG, priority 2014, dated 2023)", "molecules": {"B1": {"name": "mAb-B1-23: murine IgG2a (kappa) monoclonal anti-human GDF-15 antibody produced by hybridoma cell line B1-23, DSM ACC3142 (antibody, V domains shown)", "VH": "QVKLQQSGPGILQSSQTLSLTCSFSGFSLSTSGMGVSWIRQPSGKGLEWLAHIYWDDDKRYNPTLKSRLTISKDPSRNQVFLKITSVDTADTATYYCARSSYGAMDYWGQGTSVTVSS", "VL": "DIVLTQSPKFMSTSVGDRVSVTCKASQNVGTNVAWFLQKPGQSPKALIYSASYRYSGVPDRFTGSGSGTDFTLTISNVQSEDLAEYFCQQYNNFPYTFGGGTKLEIKRTVA"}}, "key": {"[1]": {"assay": "Protein A elution at physiological pH and 10 fold concentration via spin columns, turbidity", "format": "physicochemical", "details": "TRIS Buffer at physiological pH, from 0.5 mg/ml", "procedure": "FIG. 7: Improved solubility of the chimeric and the humanized antibody at physiological pH.\n5 mg of antibody (B1-23, chimeric B1-23=“ChimB1-23”, H1L5) were loaded on Proteus™ protein A columns, eluted and collected in a TRIS Buffer at physiological pH. After elution, the quality of the purified antibodies was assessed by Coomassie Brilliant Blue gel analysis. The concentration of the eluted antibodies was measured photometrically as well as in a Bradford assay (Roti-Quant, Carl Roth, Karlsruhe, Germany). […] The antibodies were then 10 fold concentrated via spin columns (Centricon, MWCO 30). […] All concentrated eluates were then centrifuged for 5 min at 13000 rpm in order to precipitate antibody aggregates. The remaining amount of soluble antibodies was finally determined via Bradford assay from the supernatant."}, "[2]": {"test_system": "prostate cancer cell line LnCap", "assay": "Cancer cell proliferation, Alamar Blue metabolic assay", "format": "cell-based", "details": "after 72 hrs, compared with control group without antibody", "source_text": "The strongest antiproliferative effect was observed using the prostate cancer cell line LnCap, which produces lots of GDF-15."}, "[3]": {"test_system": "13 mer linear peptides derived from GDF-15", "assay": "Epitope mapping on peptide array of 13 mer linear peptides derived from GDF-15", "format": "binding, human", "details": "antibody dilution 1:100, overnight at 4° C.", "procedure": "Epitope Mapping: Monoclonal mouse antibody GDF-15 against 13 mer linear peptides derived from GDF-15\nThe protein sequence was translated into 13 mer peptides with a shift of one amino acid. The C- and N-termini were elongated by a neutral GSGS linker to avoid truncated peptides (bold letters).\nPrimary sample: Monoclonal mouse antibody GDF-15 (1 μg/μl):\nStaining in incubation buffer for 16 h at 4° C. at a dilution of 1:100 and slight shaking at 500 rpm\nSecondary antibody: Goat anti-mouse IgG (H+L) IRDye680, staining in incubation buffer with a dilution of 1:5000 for 30 min at room temperature (RT)\nAfter pre-swelling for 10 min in standard buffer, the peptide microarray was incubated overnight at 4° C. with monoclonal mouse antibody GDF-15 at a dilution of 1:100. Repeated washing in standard buffer (2×1 min) was followed by incubation for 30 min with the secondary antibody at a dilution of 1:5000 at room temperature. After 2×10 sec. washing in standard buffer and short rinsing with dist. water, the PEPperCHIP® was dried in a stream of air. Read-out was done with Odyssey® Imaging System at a resolution of 21 μm and green/red intensities of 7/7 before and after staining of control peptides by anti-HA and anti-FLAG(M2) antibodies."}, "[4]": {"assay": "Study No. 140123: feed consumption of UACC-257 inoculated mice", "format": "in vivo, Balb/c^nu/nu mice", "procedure": "Treatment of cancer-induced weight loss with anti-GDF-15 antibodies. In the underlying animal study No. 140123, 10 Balb/c^nu/nu mice per treatment group were subcutaneously inoculated with 10×10^6 UACC-257 cells per animal in a 1:1 volume ratio with matrigel (100 μl cells+100 μl matrigel). The animals were treated on the same day with the respective antibodies, as indicated below:\nIn addition to evaluating the mean body weight of the mice, the feed consumption of the mice was evaluated by pairwise comparisons of the study groups (Table 1)."}, "[5]": {"test_system": "melanoma cell line UACC-257", "assay": "UACC-257 melanoma xenograft tumor growth in nude mice", "format": "in vivo, Balb/c^nu/nu nude mice", "details": "25 mg/kg i.p. twice a week; 48 days; p<0.05", "procedure": "FIG. 4: An anti-tumor effect of murine B1-23 in vivo. Balb/c^nu/nu nude mice were used in a xenograft setting with the melanoma cell line UACC-257. […] Significance was defined as p<0.05 as assessed by Wilcoxon's log-rank test.\nTo assess an anti-tumor effect of B1-23 in viva, Balb/c^nu/nu nude mice were used in a xenograft setting with the melanoma cell line UACC-257. The mice were treated either with the antibody B1-23 or with PBS. Each treatment cohort contained 10 Balb/c^nu/nu nude mice.\nPrior to injection, the UACC-257 melanoma cells were grown in complete medium, excluding any contamination. […] Cells were then washed with PBS and counted. 1×10^7 viable cells were suspended in PBS.\nThe first injection/treatment was administered in 6 week old Balb/c^nu/nu nude mice. The inoculation area of the mice was cleaned with ethanol. The UACC 257 cells were mixed and drawn into a syringe without a needle, in order to avoid negative pressure on the tumor cells. […]\nThe intraperitoneal (i.p.) injection of either B1-23 (25 mg/kg body weight) or the same volume of PBS started immediately after the tumor cell inoculation (defined as day 1) and was administered twice a week. […] The tumor diameters were measured with a caliper and the tumor volume in mm^3 was calculated by the formula: Volume=(width)^2×length/2"}}, "data": [{"molecule": "B1", "values": [{"measurement": "aggregation after 10 fold concentration", "setting": "[1]", "result": "presence of precipitates"}, {"measurement": "decrease of proliferation", "setting": "[2]", "result": 30, "unit": "%"}, {"measurement": "interaction with linear 13 mer peptides derived from GDF-15", "setting": "[3]", "result": "none of the linear 13 mer peptides derived from GDF-15 interacted"}, {"measurement": "Feed consumption per mouse and day", "setting": "[4]; average over day 17-34 intervals, with standard deviation", "result": "3.6 ± 0.2", "unit": "g"}, {"measurement": "feed consumption compared with groups which did not receive the anti-GDF-15 antibodies", "setting": "[4]; mouse, in vivo", "result": "significantly higher"}, {"measurement": "tumor size compared to the PBS control group", "setting": "[5]", "result": "significantly decreased"}]}]}
